B1: LOC100129726 (parent)
chain: AKAADSPTRNDLESGLGHFSLRVH
B2: TFE3 (parent)
chain: FHLGLEDILMEEEEGVVGGLSGGA

Variants of: B1
Experiment: protein stability index of a GFP-peptide fusion (GPS, HEK-293T) (PSI 1-6); higher = more stable
Conditions: c terminus: a fixed tail appended
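Also: lentivirally expressed fusions sorted by FACS into six bins by GFP to DsRed ratio, PSI derived from sequencing read proportions per bin multiplied by bin number.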

In order of rising protein stability index:
1. AWAADSPTRNDLESGLGHFSLRVH  1.66
2. AKAADWPTRNDLESGLGHFSLRVH  1.92
3. ACAADSPTRNDLESGLGHFSLRVH  2.05
4. CKAADSPTRNDLESGLGHFSLRVH  2.1
5. AKAAWSPTRNDLESGLGHFSLRVH  2.14
6. AKAWDSPTRNDLESGLGHFSLRVH  2.16
7. AKAADMPTRNDLESGLGHFSLRVH  2.16
8. AKAADLPTRNDLESGLGHFSLRVH  2.16
9. AKAAFSPTRNDLESGLGHFSLRVH  2.17
10. AKWADSPTRNDLESGLGHFSLRVH  2.21
11. AKYADSPTRNDLESGLGHFSLRVH  2.26
12. AKAADYPTRNDLESGLGHFSLRVH  2.26
13. AKMADSPTRNDLESGLGHFSLRVH  2.27
14. AKVADSPTRNDLESGLGHFSLRVH  2.28
15. AKAAYSPTRNDLESGLGHFSLRVH  2.3
16. AKAFDSPTRNDLESGLGHFSLRVH  2.31
17. WKAADSPTRNDLESGLGHFSLRVH  2.33
18. AKAACSPTRNDLESGLGHFSLRVH  2.34
19. AKAVDSPTRNDLESGLGHFSLRVH  2.4
20. AKAYDSPTRNDLESGLGHFSLRVH  2.42
21. AFAADSPTRNDLESGLGHFSLRVH  2.42
22. AKAADAPTRNDLESGLGHFSLRVH  2.45
23. AKAAPSPTRNDLESGLGHFSLRVH  2.48
24. IKAADSPTRNDLESGLGHFSLRVH  2.48
25. AYAADSPTRNDLESGLGHFSLRVH  2.49
26. AKAADIPTRNDLESGLGHFSLRVH  2.53
27. AKAMDSPTRNDLESGLGHFSLRVH  2.54
28. AKAAVSPTRNDLESGLGHFSLRVH  2.54
29. AKAALSPTRNDLESGLGHFSLRVH  2.56
30. AKTADSPTRNDLESGLGHFSLRVH  2.58
31. FKAADSPTRNDLESGLGHFSLRVH  2.6
32. AKLADSPTRNDLESGLGHFSLRVH  2.6
33. AKAATSPTRNDLESGLGHFSLRVH  2.61
34. AKAAHSPTRNDLESGLGHFSLRVH  2.63
35. AKAAISPTRNDLESGLGHFSLRVH  2.65
36. AKAARSPTRNDLESGLGHFSLRVH  2.67
37. AKIADSPTRNDLESGLGHFSLRVH  2.69
38. AQAADSPTRNDLESGLGHFSLRVH  2.69
39. AGAADSPTRNDLESGLGHFSLRVH  2.71
40. AKAADCPTRNDLESGLGHFSLRVH  2.71
41. AKAADGPTRNDLESGLGHFSLRVH  2.72
42. AKCADSPTRNDLESGLGHFSLRVH  2.73
43. RKAADSPTRNDLESGLGHFSLRVH  2.74
44. MKAADSPTRNDLESGLGHFSLRVH  2.74
45. AKAADFPTRNDLESGLGHFSLRVH  2.74
46. AKFADSPTRNDLESGLGHFSLRVH  2.77
47. AKAADVPTRNDLESGLGHFSLRVH  2.77
48. AMAADSPTRNDLESGLGHFSLRVH  2.78
49. AKARDSPTRNDLESGLGHFSLRVH  2.81
50. AKAANSPTRNDLESGLGHFSLRVH  2.81
51. AKAAASPTRNDLESGLGHFSLRVH  2.84
52. AKAGDSPTRNDLESGLGHFSLRVH  2.86
53. ANAADSPTRNDLESGLGHFSLRVH  2.88
54. AKAAGSPTRNDLESGLGHFSLRVH  2.9
55. LKAADSPTRNDLESGLGHFSLRVH  2.9
56. AKALDSPTRNDLESGLGHFSLRVH  2.95
57. AKAADHPTRNDLESGLGHFSLRVH  2.95
58. AKNADSPTRNDLESGLGHFSLRVH  2.97
59. AKAIDSPTRNDLESGLGHFSLRVH  2.98
60. AKAADKPTRNDLESGLGHFSLRVH  2.98
61. ASAADSPTRNDLESGLGHFSLRVH  2.99
62. AKHADSPTRNDLESGLGHFSLRVH  3
63. AKQADSPTRNDLESGLGHFSLRVH  3.03
64. ALAADSPTRNDLESGLGHFSLRVH  3.03
65. AKANDSPTRNDLESGLGHFSLRVH  3.04
66. AKPADSPTRNDLESGLGHFSLRVH  3.04
67. AKACDSPTRNDLESGLGHFSLRVH  3.05
68. AKAPDSPTRNDLESGLGHFSLRVH  3.06
69. AKAAMSPTRNDLESGLGHFSLRVH  3.06
70. AKAASSPTRNDLESGLGHFSLRVH  3.07
71. AKAADRPTRNDLESGLGHFSLRVH  3.08
72. AKAKDSPTRNDLESGLGHFSLRVH  3.09
73. AKASDSPTRNDLESGLGHFSLRVH  3.1
74. GKAADSPTRNDLESGLGHFSLRVH  3.1
75. AKAQDSPTRNDLESGLGHFSLRVH  3.15
76. AKAAQSPTRNDLESGLGHFSLRVH  3.15
77. AKAAESPTRNDLESGLGHFSLRVH  3.16
78. AKAADPPTRNDLESGLGHFSLRVH  3.16
79. PKAADSPTRNDLESGLGHFSLRVH  3.17
80. AVAADSPTRNDLESGLGHFSLRVH  3.18
81. AKAAKSPTRNDLESGLGHFSLRVH  3.19
82. AIAADSPTRNDLESGLGHFSLRVH  3.21
83. AKKADSPTRNDLESGLGHFSLRVH  3.23
84. APAADSPTRNDLESGLGHFSLRVH  3.23
85. NKAADSPTRNDLESGLGHFSLRVH  3.25
86. TKAADSPTRNDLESGLGHFSLRVH  3.25
87. HKAADSPTRNDLESGLGHFSLRVH  3.27
88. ATAADSPTRNDLESGLGHFSLRVH  3.27
89. KKAADSPTRNDLESGLGHFSLRVH  3.34
90. YKAADSPTRNDLESGLGHFSLRVH  3.34
91. AKAHDSPTRNDLESGLGHFSLRVH  3.36
92. SKAADSPTRNDLESGLGHFSLRVH  3.36
93. QKAADSPTRNDLESGLGHFSLRVH  3.38
94. ARAADSPTRNDLESGLGHFSLRVH  3.38
95. AHAADSPTRNDLESGLGHFSLRVH  3.38
96. VKAADSPTRNDLESGLGHFSLRVH  3.39
97. AKAADTPTRNDLESGLGHFSLRVH  3.39
98. AKGADSPTRNDLESGLGHFSLRVH  3.42
99. AKDADSPTRNDLESGLGHFSLRVH  3.44
100. AKAADDPTRNDLESGLGHFSLRVH  3.44
101. EKAADSPTRNDLESGLGHFSLRVH  3.47
102. AKSADSPTRNDLESGLGHFSLRVH  3.49
103. AKAADEPTRNDLESGLGHFSLRVH  3.5
104. ADAADSPTRNDLESGLGHFSLRVH  3.55
105. AKRADSPTRNDLESGLGHFSLRVH  3.58
106. AKAADNPTRNDLESGLGHFSLRVH  3.58
107. AAAADSPTRNDLESGLGHFSLRVH  3.68
108. AKATDSPTRNDLESGLGHFSLRVH  3.7
109. AKAADQPTRNDLESGLGHFSLRVH  3.76
110. AKEADSPTRNDLESGLGHFSLRVH  3.8
111. AKADDSPTRNDLESGLGHFSLRVH  3.87
112. DKAADSPTRNDLESGLGHFSLRVH  3.88
113. AEAADSPTRNDLESGLGHFSLRVH  3.98
114. AKAEDSPTRNDLESGLGHFSLRVH  4.12

Variants of: B2
Experiment: as above
Conditions: c terminus: a fixed tail appended

In order of falling protein stability index:
1. HHLGLEDILMEEEEGVVGGLSGGA  5.11
2. GHLGLEDILMEEEEGVVGGLSGGA  4.95
3. FHLGLEDILMEEEEGVVGGDSGGA  4.92
4. FHLELEDILMEEEEGVVGGLSGGA  4.89
5. PHLGLEDILMEEEEGVVGGLSGGA  4.88
6. FHLGLEDILMEEEEGVVGGLSGEA  4.87
7. MHLGLEDILMEEEEGVVGGLSGGA  4.85
8. FDLGLEDILMEEEEGVVGGLSGGA  4.81
9. FHLGLEDELMEEEEGVVGGLSGGA  4.72
10. FHLGVEDILMEEEEGVVGGLSGGA  4.53
11. EHLGLEDILMEEEEGVVGGLSGGA  4.53
12. FHAGLEDILMEEEEGVVGGLSGGA  4.52
13. FQLGLEDILMEEEEGVVGGLSGGA  4.44
14. FHLGLEDILMEEEEEVVGGLSGGA  4.39
15. FHLGCEDILMEEEEGVVGGLSGGA  4.36
16. FHLGLEDINMEEEEGVVGGLSGGA  4.33
17. FHLGLEDILMEEEEGVVGELSGGA  4.32
18. FMLGLEDILMEEEEGVVGGLSGGA  4.29
19. FHLGLEDILEEEEEGVVGGLSGGA  4.27
20. FHLGLEDILMEEEEGVVGGLSGGQ  4.24
21. FHLGLEDILMEEEEGVVGGLSGGD  4.17
22. FHRGLEDILMEEEEGVVGGLSGGA  4.14
23. FHVGLEDILMEEEEGVVGGLSGGA  4.14
24. FHLGLEDILDEEEEGVVGGLSGGA  4.13
25. FALGLEDILMEEEEGVVGGLSGGA  4.12
26. FHLGLEDILSEEEEGVVGGLSGGA  4.08
27. FHLGLEDICMEEEEGVVGGLSGGA  4.06
28. FHLGLEDILAEEEEGVVGGLSGGA  4
29. FHLGLEDYLMEEEEGVVGGLSGGA  3.99
30. FCLGLEDILMEEEEGVVGGLSGGA  3.96
31. FHLGLEDILMEEEEGVVGGLSGNA  3.96
32. FHLGLEDILMEEEESVVGGLSGGA  3.92
33. FHLGLEDILMEEEEGVVGGLSGKA  3.89
34. FHLGLEDILMEEEEGAVGGLSGGA  3.87
35. FHLGNEDILMEEEEGVVGGLSGGA  3.85
36. FHLGLEDILMEEEEGVKGGLSGGA  3.77
37. FHLGLEDILMEEEEGHVGGLSGGA  3.76
38. FHLGLEDILMEEEEGVVGGLSNGA  3.72
39. FHLGLEDISMEEEEGVVGGLSGGA  3.69
40. FHLGLEDILMEEEEGVEGGLSGGA  3.64
41. FHLGLEDILMEEEEGVVAGLSGGA  3.64
42. FHLGLEDILMEEEEGVLGGLSGGA  3.61
43. FHLGLEDILHEEEEGVVGGLSGGA  3.58
44. FHLGLEDILMEEEEGVVGGLSGLA  3.58
45. FHLGLEDILMEEEEGVAGGLSGGA  3.54
46. FHLGLEDILMEEEEGVVGGLSGGT  3.52
47. FHLGLEDILMEEEEGVVGPLSGGA  3.52
48. FHLGLEDILMEEEEGVVGKLSGGA  3.34
49. FHLGLEDILMEEEEGYVGGLSGGA  3.34
50. FHLGLEDIFMEEEEGVVGGLSGGA  3.29
51. FHLGLEDILMEEEEGVVGSLSGGA  3.28
52. FHLGLEDILMEEEEHVVGGLSGGA  3.25
53. FHLGLEDILMEEETGVVGGLSGGA  3.25
54. FHLGFEDILMEEEEGVVGGLSGGA  3.16
55. FHLGLEDILMNEEEGVVGGLSGGA  3.11
56. FHLGLEDILMEEEELVVGGLSGGA  3.1
57. FHLTLEDILMEEEEGVVGGLSGGA  3.08
58. FHLGLENILMEEEEGVVGGLSGGA  3.04
59. FHLGLEDILMEEEEGVVGGWSGGA  3.02
60. FHLGLEDILMEEEGGVVGGLSGGA  2.94
61. FHLGLEVILMEEEEGVVGGLSGGA  2.89
62. FHLGLEDILMEEEEGVVGGLSWGA  2.85
63. FHLGLEDILMEEEEGLVGGLSGGA  2.77
64. FHLGLEDILMEEEEGVVGGLSGFA  2.7
65. FHLGLEDILMEEGEGVVGGLSGGA  2.58
66. FILGLEDILMEEEEGVVGGLSGGA  2.52
67. FHLLLEDILMEEEEGVVGGLSGGA  2.46
68. FHLGLEDILMEEEEGVVGGLSGGF  2.39
69. FHLGLEDILMYEEEGVVGGLSGGA  2.38
70. FHLGLVDILMEEEEGVVGGLSGGA  2.34
71. FHLGLEDILMEEEIGVVGGLSGGA  2.22
72. FHLGLEDILMEFEEGVVGGLSGGA  2.14
73. FHLILEDILMEEEEGVVGGLSGGA  2.1
74. FHLGLEDILMEVEEGVVGGLSGGA  1.74
